Data from patent publication US20160039936A1, “FIBROBLAST GROWTH FACTOR RECEPTOR INHIBITION FOR THE TREATMENT OF DISEASE” (UNIVERSITY OF MIAMI, priority 2011, published 2016).

Tests used:
[1] = test system: isolated NRVM; assay: Quantitative PCR of ANP and BNP in NRVM; type: cell-based, rat; details: for expression of ANP and BNP: 48 h, FGF alone, qPCR
Protocol: Total RNA was purified from isolated NRVMs using Trizol (G Biosciences) according to the manufacturer's protocol, and reverse transcribed using Qscript (Quanta Biosciences). Gene expression was quantified by real-time PCR on a Biorad CFX 96 real-time Detection System using 200 ng of cDNA, PerfeCTA SYBR Green FastMix ROX (Quanta Biosciences). RNA from total mouse and rat hearts was extracted using the PureLink RNA Mini Kit (Ambion by Life Technologies) and Trizol (Life Technologies). 2 μg total RNA was reverse-transcribed using First Stand cDNA Synthesis Kit for RT-PCR (AMV) (Roche Diagnostics). Quantitative PCR reactions were carried out in the StepOne plus Real-Time PCR System (Applied Biosystems) using FAST SYBR Green Master Mix (Applied Biosystems). Raw data were quantified via StepOne™ software v2.3 from life Technologies. Relative gene expression was normalized to expression levels of 18S rRNA (for NRVM), and GAPDH or beta actin (mouse and rat tissue), and evaluated using the 2^−ΔΔCt method.

[2] = test system: neonatal mouse ventricular myocytes (NMVM); assay: Hypertrophic growth and β-MHC of isolated NMVM (wild-type or FGFR4−/−); type: cell-based; details: 48 h
Protocol: NMVM were isolated enzymatically (Kreusser et al., 2014). Briefly, hearts from 1-3 day-old mice were harvested, minced in PBS/glucose and further digested with collagenase type 2 (0.2% w/v) and DNase (0.05% w/v) on a rotary shaker at 37° C. for 11 minutes. Cells were then released from the tissue by triturating the suspension twice with a standard 10 ml plastic serological pipette, transferred to DF10 medium (Dulbecco's Modified Eagle Medium/Ham's Nutrient Mixture F12 adjusted to 17 mM NaHCO2 containing 2 mM L-glutamine, 1% P/S and 10% FBS), and stored on ice. The remaining tissue was further incubated in PBS/glucose/collagenase/DNase solution on a rotary shaker at 37° C. for 11 minutes. The trituration and incubation steps were repeated 5-7 times until the tissue was completely dissolved. Cells were pelleted at 300 g for 5 minutes, resuspended in DF20 media (Dulbecco's Modified Eagle Medium/Ham's Nutrient Mixture F12 adjusted to 17 mM NaHCO2 containing 2 mM L-glutamine, 1% P/S and 20% FBS), and preplated for 1 hour to eliminate fibroblasts. Remaining cells were counted using a hemocytometer and plated on glass and plastic surfaces, which were coated with laminin (Sigma-Aldrich; 10 μg/ml in PBS) at room temperature for 1 hour prior to plating. For immunofluorescence analysis, 3×10^5 cells were seeded per well on glass coverslips in 24-well plates. For Western blot analyses of total protein extracts, 5×10^6 cells were seeded in 10 cm-culture dishes. Cells were left undisturbed in DF20 medium at 37° C. for 72 hours, starved overnight with DF medium (Dulbecco's Modified Eagle Medium/Ham's Nutrient Mixture F12 adjusted to 17 mM NaHCO2 containing 2 mM L-glutamine, 1% P/S), and treated in DF medium with recombinant FGF23, FGF2 (both at 100 ng/ml) or AngII (1 μM, Sigma-Aldrich) for 48 hours.
HEK293 cells, NRVM or NMVM were treated with growth factors for 30 minutes to analyze activation of signal transduction mediators, or for 48 hours to analyze expression levels of hypertrophic marker proteins. Cells were scraped from 6-well plates using 500 μl CHAPS extraction buffer (20 mM Tris-HCl pH7.5, 500 mM NaCl, 0.5% CHAPS, protease inhibitor cocktail (Roche), protein phosphatase inhibitors [Sigma-Aldrich]) and incubated on ice for 30 minutes. The cell lysate was centrifuged at 14,000 rpm and 4° C. for 30 minutes, and the supernatant boiled in sample buffer and analyzed by SDS-PAGE and immunoblotting. For protein extraction from mouse hearts, tissue was isolated, minced and homogenized in RIPA extraction buffer (50 mM Tris-HCl pH 7.5, 200 mM NaCl, 1% Triton X-100, 0.25% DOC, 1 mM EDTA, 1 mM EGTA, protease and phosphatase inhibitors) at 1:10 (w:v), and protein lysates were prepared as described above.
Cultured cells were fixed in 2% PFA (in 5 mg/ml sucrose) for 5 minutes and permeabilized in 1% Triton X-100 (in PBS) for 10 minutes. We analyzed hypertrophic growth of isolated NRVM and NMVM on laminin-coated glass coverslips after 48 hours of treatment with growth factors. For FGFR4 expression and localization analyses, untreated NMVM from wild-type and FGFR4^−/− mice were immunolabeled. The mouse monoclonal antibody against sarcomeric α-actinin (EA-53; Sigma-Aldrich) was used at 1:1,000, and rabbit polyclonal anti-FGFR4 (C-16; Santa Cruz) at 1:50. Cy3-conjugated goat-anti mouse and Alexa488-conjugated goat-anti rabbit (Jackson Immuno Research) were used as secondary antibodies at 1:300. To visualize nuclei, fixed cells were incubated with 4′,6-diamidino-2-phenylindole (DAPI; 400 ng/ml in PBS) for 10 minutes. Immunofluorescence images were taken on a Leica TCS-SP5 confocal microscope with a 63× oil objective.
Myocyte cross-sectional area was measured based on α-actinin-positive staining using Leica AF6000 fluorescence software. […]

Molecule: CCN(CC)CCCCNc1ncc2cc(-c3cc(OC)cc(OC)c3)c(NC(=O)NC(C)(C)C)nc2n1 [PD173074]
- FGF2-mediated increases in ANP and BNP expression with inhibitor ([1]; 48 h co-treatment): blocks
- FGF23-mediated increases in ANP and BNP expression with inhibitor ([1]; 48 h co-treatment): blocks

B1: FGF2: recombinant mouse FGF2 (Ala11-Ser154) (R&D Systems) (protein)
chain: ALPEDGGAAFPPGHFKDPKRLYCKNGGFFLRIHPDGRVDGVREKSDPHVKLQLQAEERGVVSIKGVCANRYLAMKEDGRLLASKCVTEECFFFERLESNNYNTYRSRKYSSWYVALKRTGQYKLGSKTGPGQKAILFLPMSAKS
- expression of ANP and BNP [1]: significantly increased
- expression of β-MHC protein in FGFR4−/− NMVM ([2]; immunoblot): induced this effect
- expression of β-MHC protein in wild-type NMVM ([2]; immunoblot): increased expression
- cross-sectional area (size) of NMVM from FGFR4−/− mice ([2]; FGF 100 ng/ml, AngII 1 μM): increase the size
- cross-sectional area of wild-type NMVM ([2]; FGF 100 ng/ml, AngII 1 μM): significant increases

B2: FGF23: recombinant mouse FGF23, 6His-tagged Tyr25-Val251 (Arg179Gln) (R&D Systems) (protein)
chain: YPDTSPLLGSNWGSLTHLYTATARTSYHLQIHRDGHVDGTPHQTIYSALMITSEDAGSVVITGAMTRRFLCMDLHGNIFGSLHFSPENCKFRQWTLENGYDVYLSQKHHYLVSLGRAKRIFQPGTNPPPFSQFLARRNEVPLLHFYTVRPRRHTQSAEDPPERDPLNVLKPRPRATPVPVSCSRELPSAEEGGPAASDPLGVLRRGRGDARGGAGGADRCRPFPRFV
modifications: left off: small tags and cut ends
- expression of ANP and BNP [1]: significantly increased
- expression of β-MHC protein in wild-type NMVM ([2]; immunoblot): increased expression
- cross-sectional area of wild-type NMVM ([2]; FGF 100 ng/ml, AngII 1 μM): significant increases
